Results on one molecule are retold here after PMC5778809.

In this experiment the target is SELENOF’-YFP (human selenoprotein F with Sec changed to Cys, fused to enhanced yellow fluorescence protein) (human) (UniProt O60613). Nature of the experiment: FRET or BRET; acceptor photobleaching in HEK293T cells co-transfected with pEYFP-N1 and pECFP-C1 constructs; YFP bleached at 515 nm, CFP read before and after; confocal microscope.
UniProt O60613, sequence (O60613 32-165): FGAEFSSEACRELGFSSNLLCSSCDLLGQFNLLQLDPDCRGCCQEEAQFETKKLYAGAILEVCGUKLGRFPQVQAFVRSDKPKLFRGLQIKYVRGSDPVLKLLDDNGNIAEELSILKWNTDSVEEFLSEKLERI

B1: CFP-RDH11 (human retinol dehydrogenase 11 fused to cyan fluorescence protein) (enzyme)
chain: VELMFPLLLLLLPFLLYMAAPQIRKMLSSGVCTSTVQLPGKVVVVTGANTGIGKETAKELAQRGARVYLACRDVEKGELVAKEIQTTTGNQQVLVRKLDLSDTKSIRAFAKGFLAEEKHLHVLINNAGVMMCPYSKTADGFEMHIGVNHLGHFLLTHLLLEKLKESAPSRIVNVSSLAHHLGRIHFHNLQGEKFYNAGLAYCHSKLANILFTQELARRLKGSGVTTYSVHPGTVQSELVRHSSFMRWMWWLFSFFIKTPQQGAQTSLHCALTEGLEILSGNHFSDCHVAWVSAQARNETIARRLWDVSCDLLGLPID
Regarding B1, the FRET energy transfer efficiency stood at 29.2%; the estimated distance between donor and acceptor (FRET) is 5.51 nm.
